Molecular target: S-protein of WT SARS-CoV-2 (S-trimer) used in BLI (SARS-CoV-2 wildtype, UniProt P0DTC2, stabilised)
Assay: BLI

B1: R1-26 (mAb, human IgG1) (antibody, V domains shown)
VH: EVQLVESGGGLVQPGGSLRLSCAASGFTFSSYWMSWVRQAPGKGLEWVANIKQDGSEKYYVDSVKGRFTISRDNAKNSLYLQMNSLRAEDTAVYYCARGQLGPWVGVDYWGQGTLVTVSS
VL: NFMLTQPHSVSESPGKTVTISCTGSSGSIASNYVQWYQQRPGSAPTTVIYEDNQRPSGVPDRFSGSIDSSSNSASLTISGLKTEDEADYYCQSYDSSNWVFGGGTQLTVL
  binding result: binds
